Results as given in US20050148516A1.

Target: mature type GnT-V
Test: cell-based or functional assay

GnT-V activity in culture solution, PS-1 ΔE9 cells against control cells: 4 fold
ratio of the GnT-V activity in culture solution (extracellular) to that in the cell, PS-1 ΔE9 cells: 3.5
ratio of the GnT-V activity in culture solution (extracellular) to that in the cell, PS-1 ΔE9 cells against control cells: 3 fold
ratio of the GnT-V activity in culture solution (extracellular) to that in the cell, control cells without high expression of variant presenilin-1: 1.2
Substance: γ-secretase (enzyme)
